One block for each substance: values may come before it.
Assays:
[1] = molecular target: APPΔS622, N-terminally myc-tagged APP695 (human) (UniProt P05067)
[2] = molecular target: APP-D8, N-terminally myc-tagged APP695 (human) (UniProt P05067)
[3] = molecular target: APPΔF616, N-terminally myc-tagged APP695 (human) (UniProt P05067)

S2 cell aggregation assay: clustered transfected cells, compared to APPwt expressing cells [1]: > 2 fold
Substance: APPΔS622, N-terminally myc-tagged APP695 (from UniProt P05067-4 18-695) (natural protein)

S2 cell aggregation assay: clustered transfected cells, compared to APPwt expressing cells [2]: 2 fold
Substance: APP-D8, N-terminally myc-tagged APP695 (from UniProt P05067-4 18-695) (natural protein)

S2 cell aggregation assay: clustered transfected cells, compared to APPwt expressing cells [3]: > 2 fold
Substance: APPΔF616, N-terminally myc-tagged APP695 (from UniProt P05067-4 18-695) (natural protein)

Reference: PMC4253958
